Measured values published in patent US20150210756A1 (NEW YORK UNIVERSITY, published 2015).

Key:
HlgC = target: T1, HlgC (S. aureus, UniProt Q07227 30-315); test: ELISA on purified, recombinant HlgC
T1 construct: also called gamma hemolysin C; HlgC subunit
T1 sequence: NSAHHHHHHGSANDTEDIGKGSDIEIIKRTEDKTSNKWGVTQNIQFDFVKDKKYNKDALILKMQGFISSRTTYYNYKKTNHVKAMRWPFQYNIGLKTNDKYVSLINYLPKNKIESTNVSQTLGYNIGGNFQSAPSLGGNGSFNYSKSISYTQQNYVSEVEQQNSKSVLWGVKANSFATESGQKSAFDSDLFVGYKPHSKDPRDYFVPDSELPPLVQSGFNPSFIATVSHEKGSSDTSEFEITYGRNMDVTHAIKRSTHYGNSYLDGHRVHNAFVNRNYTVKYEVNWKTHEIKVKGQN

HlgA = target: T2, HlgA (S. aureus, UniProt P0A071 30-309); test: ELISA on purified, recombinant HlgA
T2 construct: also called gamma hemolysin A; HlgA subunit
T2 sequence: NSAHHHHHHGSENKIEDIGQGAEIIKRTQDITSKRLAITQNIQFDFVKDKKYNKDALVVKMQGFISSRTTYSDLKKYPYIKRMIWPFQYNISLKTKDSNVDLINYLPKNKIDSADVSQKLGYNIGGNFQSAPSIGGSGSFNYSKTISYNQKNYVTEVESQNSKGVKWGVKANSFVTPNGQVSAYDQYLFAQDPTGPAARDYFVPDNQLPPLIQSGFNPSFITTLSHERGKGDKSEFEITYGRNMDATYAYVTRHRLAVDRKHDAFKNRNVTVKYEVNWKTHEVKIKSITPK

[1] = target: T3, Recombinant LukA′B toxoid complex (S. aureus, UniProt Q2FFA2 28-351; P21224 30-338); test: ELISA after cis-display panning
T3 construct: also called modified LukA′B toxoid complex
T3 sequence 1: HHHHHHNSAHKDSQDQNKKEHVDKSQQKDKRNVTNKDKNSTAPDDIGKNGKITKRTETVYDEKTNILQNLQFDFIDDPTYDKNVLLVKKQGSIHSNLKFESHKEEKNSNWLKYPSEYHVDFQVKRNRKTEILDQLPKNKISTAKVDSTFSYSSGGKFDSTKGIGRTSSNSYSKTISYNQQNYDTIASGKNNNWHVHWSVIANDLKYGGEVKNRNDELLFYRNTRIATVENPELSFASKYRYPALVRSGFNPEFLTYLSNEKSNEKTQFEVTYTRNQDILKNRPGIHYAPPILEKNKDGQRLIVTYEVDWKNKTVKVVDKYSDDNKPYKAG
T3 sequence 2: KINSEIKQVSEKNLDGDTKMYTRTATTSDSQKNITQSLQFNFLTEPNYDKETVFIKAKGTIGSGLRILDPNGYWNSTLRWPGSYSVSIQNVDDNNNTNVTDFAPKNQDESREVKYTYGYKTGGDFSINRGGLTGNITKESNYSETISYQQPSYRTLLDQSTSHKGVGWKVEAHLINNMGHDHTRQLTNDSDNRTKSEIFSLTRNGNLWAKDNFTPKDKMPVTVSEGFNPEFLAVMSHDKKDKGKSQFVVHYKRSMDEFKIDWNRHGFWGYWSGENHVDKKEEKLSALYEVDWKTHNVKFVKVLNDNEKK

human FcγRIIIa (V158) = human FcγRIIIa (V158) (human, UniProt P08637 17-208); test: AlphaScreen competition against biotinylated IgG1
human FcγRI = human FcγRI (human, UniProt P12314 16-288); test: AlphaScreen competition against biotinylated IgG1
Protein A = target: T4, Protein A (Staphylococcus aureus, UniProt P38507 37-477); test: direct ELISA on coated biotinylated Protein A
T4 construct: also called S. aureus Protein A; SpA

LukS-PV = target: T5, LukS-PV (S. aureus); test: ELISA on purified, recombinant LukS-PV
T5 construct: also called Panton-Valentine leukocidin S; LukS-PV subunit of the PVL leukotoxin
T5 chain: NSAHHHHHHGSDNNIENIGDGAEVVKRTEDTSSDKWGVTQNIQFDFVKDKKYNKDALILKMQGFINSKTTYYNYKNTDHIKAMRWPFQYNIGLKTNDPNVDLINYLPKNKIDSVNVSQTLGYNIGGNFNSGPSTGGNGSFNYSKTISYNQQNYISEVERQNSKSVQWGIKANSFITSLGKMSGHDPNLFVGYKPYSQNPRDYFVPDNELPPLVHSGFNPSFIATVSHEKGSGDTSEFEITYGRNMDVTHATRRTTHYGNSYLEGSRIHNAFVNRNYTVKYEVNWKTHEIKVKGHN

human FcγRIIIa (V158), sequence (P08637 17-208 F176V limits assumed): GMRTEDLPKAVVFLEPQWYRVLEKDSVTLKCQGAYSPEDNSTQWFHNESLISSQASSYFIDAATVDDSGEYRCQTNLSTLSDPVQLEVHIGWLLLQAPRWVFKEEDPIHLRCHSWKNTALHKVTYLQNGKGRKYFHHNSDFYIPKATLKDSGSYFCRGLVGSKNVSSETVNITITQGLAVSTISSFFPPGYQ
human FcγRI, sequence (P12314 16-288 limits assumed): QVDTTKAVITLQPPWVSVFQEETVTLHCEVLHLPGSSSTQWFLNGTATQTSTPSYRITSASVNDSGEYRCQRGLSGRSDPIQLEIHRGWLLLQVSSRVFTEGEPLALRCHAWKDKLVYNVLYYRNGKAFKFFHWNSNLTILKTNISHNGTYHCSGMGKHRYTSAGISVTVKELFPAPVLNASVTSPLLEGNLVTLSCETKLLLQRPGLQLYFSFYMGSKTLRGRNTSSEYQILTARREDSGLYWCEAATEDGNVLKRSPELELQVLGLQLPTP

B1: Luk357 (designed binder)
chain: LPAPKNLVVSRVTEDSARLSWTAPDAAFDSFTIHYFESLLTGEAISLVVPGSERSYDLTGLKPGTEYLVPIYGVKGGFISQPLIAIFTT
binding result (HlgC): binds

B2: Luk151 (designed binder)
chain: LPAPKNLVVSRVTEDSARLSWTAPDAAFDSFGITYTEVYWWGEAIVLTVPGSERSYDLTGLKPGTEYTVTIPGVKGGWISAPLSAIFTT
binding result (HlgA): binds

B3: Luk19 (designed binder)
chain: LPAPKNLVVSRVTEDSARLSWYHAIHRLNHFDSFLIQYQESEKVGEAIVLTVPGSERSYDLAGLKPGTEYTVSIYGVLPDAFVSSNPLSAIFTT
notes: not shown: C-terminal poly-histidine tag
binding result [1]: binds

B4: Luk20 (designed binder)
chain: LPAPKNLVVSRVTEDSARLSWYHAIHRLNHFDSFLIQYQESEKVGEAIVLTVPGSERSYDLTGLKPGTEYTVSIYGVLPDAFVSSNPLSAIFTT
notes: as for B3
binding result [1]: binds

B5: CR5133 PRASA A6 HC-AB (Construct 6) (other)
heavy: EVQLVETGGGLVKPGGSLRLSCSASRFSFRDYYMTWIRQAPGKGPEWVSHISGSGSTIYYADSVRGRFTISRDNAKSSLYLQMDSLQADDTAVYYCARGGRATSYYWVHWGPGTLVTVSSASTKGPSVFPLAPSSKSTSGGTAALGCLVKDYFPEPVTVSWNSGALTSGVHTFPAVLQSSGLYSLSSVVTVPSSSLGTQTYICNVNHKPSNTKVDKKVEPKSCDKTHTCPPCPAPPVAGPDVFLFPPKPKDTLMISRTPEVTCVVVDVSHEDPEVKFNWYVDGVEVHNAKTKPREEQYNSTYRVVSVLTVLHQDWLNGKEYKCKVSNAALPAPIAKTISKAKGQPREPQVYTLPPSRDELTKNQVSLTCLVKGFYPSDIAVEWESNGQPENNYKTTPPVLDSDGSFFLYSKLTVDKSRWQQGNVFSCSVMHEALHNRFTQKSLSLSPGKGGGGSGGGGSGGGGSGGGGSMLPAPKNLVVSRVTEDSARLSWTAPDAAFDSFWITYEEKFYRGEAIVLTVPGSERSYDLTGLKPGTEYKVWIVGVKGGQGSWPLSAIFTT
light: EIVLTQSPATLSLSPGERATLSCRASQSVSGYLGWYQQKPGQAPRLLIYGASSRATGIPDRFSGSGSGTDFTLTISRLEPEDFAVYYCQQYGSSPLTFGGGTKLEIKRTVAAPSVFIFPPSDEQLKSGTASVVCLLNNFYPREAKVQWKVDNALQSGNSQESVTEQDSKDSTYSLSSTLTLSKADYEKHKVYACEVTHQGLSSPVTKSFNRGEC
notes: also called mAb 5133 PRASA A6 HC LukAB
binding result (human FcγRIIIa (V158)): binds
binding result (human FcγRI): no binding
binding result (Protein A): no binding

B6: Luk129 (designed binder)
chain: LPAPKNLVVSRVTEDSARLSWTAPDAAFDSFNINYPEEFHGGEAIVLTVPGSERSYDLTGLKPGTEYEVWIWGVKGGSSSNPLSAIFTT
binding result (HlgA): binds

B7: Luk647 (designed binder)
chain: LPAPKNLVVSRVTEDSARLSWTAPDAAFDSFSIYYGEWDPTGEAIVLTVPGSERSYDLTGLKPGTEYWVLIVGVKGGSTSAPLSAIFTT
binding result (LukS-PV): binds

B8: Luk540 (designed binder)
chain: LPAPKNLVVSRVTEDSARLSWTAPDAAFDSFHIEYPEDTEQGEAIVLTVPGSERSYDLTGLKPGTEYNVHITGVKGGSKSAPLSAIFTT
binding result (LukS-PV): binds

B9: Luk17 (designed binder)
chain: LPAPKNLVVSRVTEDSARLSWTAPDAAFDSFWITYEEKFYRGEAIVLTVPGSERSYDLTGLKPGTEYKVWIVGVKGGQGSWPLSAIFTT
notes: also called Luk17 anti-LukAB FN3 domain; not shown: C-terminal poly-histidine tag
binding result [1]: binds

B10: CR5133 PRASA A6 LC-D (Construct 5) (other)
heavy: EVQLVETGGGLVKPGGSLRLSCSASRFSFRDYYMTWIRQAPGKGPEWVSHISGSGSTIYYADSVRGRFTISRDNAKSSLYLQMDSLQADDTAVYYCARGGRATSYYWVHWGPGTLVTVSSASTKGPSVFPLAPSSKSTSGGTAALGCLVKDYFPEPVTVSWNSGALTSGVHTFPAVLQSSGLYSLSSVVTVPSSSLGTQTYICNVNHKPSNTKVDKKVEPKSCDKTHTCPPCPAPPVAGPDVFLFPPKPKDTLMISRTPEVTCVVVDVSHEDPEVKFNWYVDGVEVHNAKTKPREEQYNSTYRVVSVLTVLHQDWLNGKEYKCKVSNAALPAPIAKTISKAKGQPREPQVYTLPPSRDELTKNQVSLTCLVKGFYPSDIAVEWESNGQPENNYKTTPPVLDSDGSFFLYSKLTVDKSRWQQGNVFSCSVMHEALHNRFTQKSLSLSPGK
light: EIVLTQSPATLSLSPGERATLSCRASQSVSGYLGWYQQKPGQAPRLLIYGASSRATGIPDRFSGSGSGTDFTLTISRLEPEDFAVYYCQQYGSSPLTFGGGTKLEIKRTVAAPSVFIFPPSDEQLKSGTASVVCLLNNFYPREAKVQWKVDNALQSGNSQESVTEQDSKDSTYSLSSTLTLSKADYEKHKVYACEVTHQGLSSPVTKSFNRGECGGGGSGGGGSGGGGSGGGGSLPAPKNLVVSRVTEDSARLSWRAKPWAPKFDSFLIQYQESEKVGEAIVLTVPGSERSYDLTGLKPGTEYTVSIYGVKASEKFIESNPLSAIFTT
binding result (human FcγRIIIa (V158)): binds
binding result (human FcγRI): no binding
binding result (Protein A): no binding

B11: CR5133 PRASA A6 LC-D HC-AB (Construct 7) (other)
heavy: EVQLVETGGGLVKPGGSLRLSCSASRFSFRDYYMTWIRQAPGKGPEWVSHISGSGSTIYYADSVRGRFTISRDNAKSSLYLQMDSLQADDTAVYYCARGGRATSYYWVHWGPGTLVTVSSASTKGPSVFPLAPSSKSTSGGTAALGCLVKDYFPEPVTVSWNSGALTSGVHTFPAVLQSSGLYSLSSVVTVPSSSLGTQTYICNVNHKPSNTKVDKKVEPKSCDKTHTCPPCPAPPVAGPDVFLFPPKPKDTLMISRTPEVTCVVVDVSHEDPEVKFNWYVDGVEVHNAKTKPREEQYNSTYRVVSVLTVLHQDWLNGKEYKCKVSNAALPAPIAKTISKAKGQPREPQVYTLPPSRDELTKNQVSLTCLVKGFYPSDIAVEWESNGQPENNYKTTPPVLDSDGSFFLYSKLTVDKSRWQQGNVFSCSVMHEALHNRFTQKSLSLSPGKGGGGSGGGGSGGGGSGGGGSMLPAPKNLVVSRVTEDSARLSWTAPDAAFDSFWITYEEKFYRGEAIVLTVPGSERSYDLTGLKPGTEYKVWIVGVKGGQGSWPLSAIFTT
light: EIVLTQSPATLSLSPGERATLSCRASQSVSGYLGWYQQKPGQAPRLLIYGASSRATGIPDRFSGSGSGTDFTLTISRLEPEDFAVYYCQQYGSSPLTFGGGTKLEIKRTVAAPSVFIFPPSDEQLKSGTASVVCLLNNFYPREAKVQWKVDNALQSGNSQESVTEQDSKDSTYSLSSTLTLSKADYEKHKVYACEVTHQGLSSPVTKSFNRGECGGGGSGGGGSGGGGSGGGGSLPAPKNLVVSRVTEDSARLSWRAKPWAPKFDSFLIQYQESEKVGEAIVLTVPGSERSYDLTGLKPGTEYTVSIYGVKASEKFIESNPLSAIFTT
notes: also called PRASA A6 LC-D AB construct 7
binding result (human FcγRIIIa (V158)): binds
binding result (human FcγRI): no binding
binding result (Protein A): no binding

B12: Luk24 (designed binder)
chain: LPAPKNLVVSRVTEDSARLSWTAPDAAFDSFQIGYFELWPNGEAIVLTVPGSERSYDLTGLKPGTEYEVFIRGVKGGLYSYPLSAIFTT
notes: as for B3
binding result [1]: binds

B13: Luk188 (designed binder)
chain: LPAPKNLVVSRVTEDSARLSWTAPDAAFDSFHIHYWEFNPAGEAIVLTVPGSERSYDLTGLKPGTEYFVGIHGVKGGGISWPLSAIFTT
binding result (HlgC): binds
